According to patent publication US20250152742A1, “COMPOSITIONS AND METHODS FOR NEUROLOGICAL DISEASES” (Trames Bio, Inc., priority 2022, published 2025):

System: engineered chimeric receptor SEQ ID NO: 33 and its mutants (human α7-nAChR ligand binding domain / human GlyRα1 ion pore domain) in Lenti-X 293T cells
Assay: YFP fluorescence quenching anion reporter plate reader assay (percent quench, EC50)
Assay type: cell-based
Conditions: for YFP fluorescence quenching using CNL001 (percent quench): receptor named in row; for YFP fluorescence quenching using Facinicline, 30 nM fac: ligand Facinicline 30 nM; for YFP fluorescence quenching using Facinicline, 300 nM fac: ligand Facinicline 300 nM; for YFP fluorescence quenching using Facinicline, 30 uM fac: ligand Facinicline 30 uM; for YFP fluorescence quenching using TC-6987, 1 uM tc6987: ligand TC-6987 1 uM; for YFP fluorescence quenching using TC-6987, 10 uM tc6987: ligand TC-6987 10 uM; for YFP fluorescence quenching using TC-6987, 500 uM tc6987: ligand TC-6987 500 uM; for YFP fluorescence quenching using Varenicline, 3 nM var: ligand Varenicline 3 nM; for YFP fluorescence quenching using Varenicline, 30 nM var: ligand Varenicline 30 nM; for YFP fluorescence quenching using Varenicline, 300 nM var: ligand Varenicline 300 nM; for YFP fluorescence quenching using Varenicline, 500 nM var: ligand Varenicline 500 nM; for YFP fluorescence quenching using Varenicline, 1 uM var: ligand Varenicline 1 uM
Source text: To screen these mutant LGICs for those having novel response profiles to ligands, an anion reporter assay was developed to assess the function of the LGICs in a high throughput format. In this assay, cells expressing a YFP reporter whose fluorescence is quenched in the presence of anion are transfected with DNA encoding the channel of interest. Upon exposure to ligand, channels that are activated will flux anion, resulting in a dose-dependent quench of the YFP that can be detected on a plate reader. The greater the quench signal (i.e., the more positive the value), the higher the ligand activity on the receptor is.
Lenti-X 293T cells (LX293T, Clontech) were maintained in DMEM containing 10% FBS and 1% penicillin/streptomycin (Invitrogen). […] Two days before assay, cells were split at a density of 20,000 cells/well in a 96-well tissue culture plate coated with poly-d lysine (Thermo Scientific). The next day, the cells were transiently transfected with 0.1 μg of DNA per well using standard Fugene protocol (Promega). On the day of assay, cells were washed 2 times in 1X extracellular solution (1X ECS: 140 mM NaCl, 5 mM KCl, 1 mM MgCl2, 2 mM CaCl2, 10 mM HEPES, 10 mM glucose, pH 7.2, mOsms 300). After the last wash, 100 μL of 1X ECS was added to the wells and the plate was incubated at 37° C. for 30 min. While incubating the plate, the drugs were diluted to a 2X concentration in 1X ECS-Nal (same components as 1X ECS except the 140 mM NaCl was replaced by 140 mM Nal). The plates were then read on a Flexstation3 (Molecular Devices). Each well, 8 wells at a time, of the plate is read for 2 min using a Flexstation3 (Molecular Devices) as follows: 1) a baseline YFP fluorescence is read for 17 sec, 2) 100 μL of ligand is added, and 3) the changes in YFP fluorescence are then measured every 1.3 sec for 1 minute and 43 seconds. The percent quench is calculated from the average fluorescence of the last 10 seconds of the read divided by the baseline average of the first 15 seconds prior to the ligand addition.
FIGS. 1A-1J provide heat maps of the percent quench of YFP fluorescence following stimulation by various doses of either acetylcholine or the non-native ligand as indicated in the Figures. CODA71 (SEQ ID NO: 33) was used as a control, and CODA75 (SEQ ID NO: 29, a non-responding chimeric engineered receptor) was used as the negative control. Quenching of the fluorescence signal, as indicated by blue shaded cells, indicate the level of engineered receptor activation by the non-native ligand at that concentration.

[1] = 1 nM CNL001, first column so headed
[2] = 1 nM CNL001, second column so headed
[3] = 3 nM brd (TC-5619/Bradanicline)
[4] = 10 nM CNL001, first column so headed
[5] = 10 nM CNL001, second column so headed
[6] = 30 nM brd (TC-5619/Bradanicline)
[7] = 50 nM CNL001, first column so headed
[8] = 50 nM CNL001, second column so headed
[9] = 100 nM CNL001, first column so headed
[10] = 100 nM CNL001, second column so headed
[11] = 300 nM brd (TC-5619/Bradanicline)
[12] = 1 uM CNL001, first column so headed
[13] = 1 uM CNL001, second column so headed

B1: CODA238: engineered receptor: R101W in SEQ ID NO: 33 (protein)
chain: MRCSPGGVWLALAASLLHVSLQGEFQRKLYKELVKNYNPLERPVANDSQPLTVYFSLSLLQIMDVDEKNQVLTTNIWLQMSWTDHYLQWNVSEYPGVKTVWFPDGQIWKPDILLYNSADERFDATFHTNVLVNSSGHCQYLPPGIFKSSCPMDLKNFPMDVQTCKLKFGSWSYGGWSLDLQMQEADISGYIPNGEWDLVGIPGKRSERFYECCKEPYPDVTFTVTMRRRMGYYLIQMYIPSLLIVILSWISFWINMDAAPARVGLGITTVLTMTTQSSGSRASLPKVSYVKAIDIWMAVCLLFVFSALLEYAAVNFVSRQHKELLRFRRKRRHHKSPMLNLFQEDEAGEGRFNFSAYGMGPACLQAKDGISVKGANNSNTTNPPPAPSKSPEEMRKLFIQRAKKIDKISRIGFPMAFLIFNMFYWIIYKIVRREDVHNQ
modifications: synthetic sequence of chimeric LGIC
YFP fluorescence quenching using CNL001 (percent quench) [1]: 32.42% | YFP fluorescence quenching using CNL001 (percent quench) [2]: 54.768% | YFP fluorescence quenching using TC-5619/Bradanicline (percent quench) [3]: 74.7% | YFP fluorescence quenching using CNL001 (percent quench) [4]: 75.149% | YFP fluorescence quenching using CNL001 (percent quench) [5]: 75.339% | YFP fluorescence quenching using TC-5619/Bradanicline (percent quench) [6]: 76.78% | YFP fluorescence quenching using CNL001 (percent quench) [7]: 75.881% | YFP fluorescence quenching using CNL001 (percent quench) [8]: 77.844% | YFP fluorescence quenching using ABT-126 (percent quench) (50 nM abt (ABT-126)): −14.97% | YFP fluorescence quenching using CNL001 (percent quench) [9]: 78% | YFP fluorescence quenching using CNL001 (percent quench) [10]: 78.575% | YFP fluorescence quenching (percent quench) (100 nM CNL002): 2.95% | YFP fluorescence quenching using ABT-126 (percent quench) (100 nM abt (ABT-126)): −14.66% | YFP fluorescence quenching using AZD-0328 (percent quench) (100 nM azd0328): 22.94% | YFP fluorescence quenching using ABT-126 (percent quench) (300 nM abt (ABT-126)): −16.35% | YFP fluorescence quenching using AZD-0328 (percent quench) (300 nM azd0328): 75.38% | YFP fluorescence quenching using TC-5619/Bradanicline (percent quench) [11]: 77.01% | YFP fluorescence quenching using CNL001 (percent quench) [12]: 81.126% | YFP fluorescence quenching using CNL001 (percent quench) [13]: 79.482% | YFP fluorescence quenching (percent quench) (1 uM CNL002): 67.93% | YFP fluorescence quenching using ABT-126 (percent quench) (1 uM abt (ABT-126)): 50.02% | YFP fluorescence quenching (percent quench) (10 uM ach (acetylcholine)): −16.58% | YFP fluorescence quenching (percent quench) (30 uM CNL002): 73.02% | YFP fluorescence quenching using AZD-0328 (percent quench) (30 uM azd0328): 81.8% | YFP fluorescence quenching (percent quench) (100 uM ach (acetylcholine)): 75.18% | YFP fluorescence quenching (percent quench) (1 mM ach (acetylcholine)): 78.99% | YFP fluorescence quenching (percent quench) (3 mM ach (acetylcholine)): 75.74% | YFP fluorescence quenching using Facinicline, 30 nM fac: −19.61 | YFP fluorescence quenching using Facinicline, 300 nM fac: 76.54 | YFP fluorescence quenching using Facinicline, 30 uM fac: 87.94 | YFP fluorescence quenching using TC-6987, 1 uM tc6987: 72.47 | YFP fluorescence quenching using TC-6987, 10 uM tc6987: 72.04 | YFP fluorescence quenching using TC-6987, 500 uM tc6987: 76.56 | YFP fluorescence quenching using Varenicline, 3 nM var (first column): 17.896 | YFP fluorescence quenching using Varenicline, 3 nM var (second column): 12.564 | YFP fluorescence quenching using Varenicline, 30 nM var (first column): 16.263 | YFP fluorescence quenching using Varenicline, 30 nM var (second column): 22.117 | YFP fluorescence quenching using Varenicline, 300 nM var (first column): 77.492 | YFP fluorescence quenching using Varenicline, 300 nM var (second column): 79.056 | YFP fluorescence quenching using Varenicline, 500 nM var (first column): 80.186 | YFP fluorescence quenching using Varenicline, 500 nM var (second column): 80.065 | YFP fluorescence quenching using Varenicline, 1 uM var (first column): 81.263 | YFP fluorescence quenching using Varenicline, 1 uM var (second column): 80.702

B2: CODA282: engineered receptor: Y115D in SEQ ID NO: 33 (protein)
chain: MRCSPGGVWLALAASLLHVSLQGEFQRKLYKELVKNYNPLERPVANDSQPLTVYFSLSLLQIMDVDEKNQVLTTNIWLQMSWTDHYLQWNVSEYPGVKTVRFPDGQIWKPDILLDNSADERFDATFHTNVLVNSSGHCQYLPPGIFKSSCPMDLKNFPMDVQTCKLKFGSWSYGGWSLDLQMQEADISGYIPNGEWDLVGIPGKRSERFYECCKEPYPDVTFTVTMRRRMGYYLIQMYIPSLLIVILSWISFWINMDAAPARVGLGITTVLTMTTQSSGSRASLPKVSYVKAIDIWMAVCLLFVFSALLEYAAVNFVSRQHKELLRFRRKRRHHKSPMLNLFQEDEAGEGRFNFSAYGMGPACLQAKDGISVKGANNSNTTNPPPAPSKSPEEMRKLFIQRAKKIDKISRIGFPMAFLIFNMFYWIIYKIVRREDVHNQ
modifications: synthetic sequence of chimeric LGIC
YFP fluorescence quenching using CNL001 (percent quench) [1]: −15.837% | YFP fluorescence quenching using CNL001 (percent quench) [2]: −6.519% | YFP fluorescence quenching using TC-5619/Bradanicline (percent quench) (1 nM brd (TC-5619/Bradanicline)): −0.54% | YFP fluorescence quenching using TC-5619/Bradanicline (percent quench) [3]: −7.22% | YFP fluorescence quenching using CNL001 (percent quench) [4]: −4.862% | YFP fluorescence quenching using CNL001 (percent quench) [5]: −8.244% | YFP fluorescence quenching using TC-5619/Bradanicline (percent quench) (10 nM brd (TC-5619/Bradanicline)): −2.82% | YFP fluorescence quenching using TC-6683 (percent quench) (30 nM TC-6683): 0.365% | YFP fluorescence quenching using TC-5619/Bradanicline (percent quench) [6]: −16.67% | YFP fluorescence quenching using CNL001 (percent quench) [7]: −3.807% | YFP fluorescence quenching using CNL001 (percent quench) [8]: −2.871% | YFP fluorescence quenching using ABT-126 (percent quench) (50 nM abt (ABT-126)): −21.22% | YFP fluorescence quenching using CNL001 (percent quench) [9]: −7.924% | YFP fluorescence quenching using CNL001 (percent quench) [10]: 2.11% | YFP fluorescence quenching (percent quench) (100 nM CNL002): −9.7% | YFP fluorescence quenching using ABT-126 (percent quench) (100 nM abt (ABT-126)): −19.7% | YFP fluorescence quenching using AZD-0328 (percent quench) (100 nM azd0328): 3.19% | YFP fluorescence quenching using TC-5619/Bradanicline (percent quench) (100 nM brd (TC-5619/Bradanicline)): −0.02% | YFP fluorescence quenching using TC-6683 (percent quench) (300 nM TC-6683): −6.865% | YFP fluorescence quenching using ABT-126 (percent quench) (300 nM abt (ABT-126)): −15.55% | YFP fluorescence quenching using AZD-0328 (percent quench) (300 nM azd0328): 4.79% | YFP fluorescence quenching using TC-5619/Bradanicline (percent quench) [11]: −12.37% | YFP fluorescence quenching using CNL001 (percent quench) [12]: 11.047% | YFP fluorescence quenching using CNL001 (percent quench) [13]: 8.04% | YFP fluorescence quenching (percent quench) (1 uM CNL002): −8.37% | YFP fluorescence quenching using ABT-126 (percent quench) (1 uM abt (ABT-126)): −14.31% | YFP fluorescence quenching using TC-5619/Bradanicline (percent quench) (1 uM brd (TC-5619/Bradanicline)): 31.23% | YFP fluorescence quenching using TC-6683 (percent quench) (3 uM TC-6683): −4.927% | YFP fluorescence quenching (percent quench) (10 uM ach (acetylcholine)): 6.81% | YFP fluorescence quenching (percent quench) (30 uM CNL002): 3.4% | YFP fluorescence quenching using TC-6683 (percent quench) (30 uM TC-6683): −11.259% | YFP fluorescence quenching using AZD-0328 (percent quench) (30 uM azd0328): 76.78% | YFP fluorescence quenching using TC-6683 (percent quench) (100 uM TC-6683): −11.894% | YFP fluorescence quenching (percent quench) (100 uM ach (acetylcholine)): 1.19% | YFP fluorescence quenching (percent quench) (1 mM ach (acetylcholine)): −14.05% | YFP fluorescence quenching (percent quench) (3 mM ach (acetylcholine)): 2.37% | YFP fluorescence quenching using Facinicline, 30 nM fac: 10.17 | YFP fluorescence quenching using Facinicline, 100 nM fac (ligand Facinicline 100 nM): 24.77 | YFP fluorescence quenching using Facinicline, 300 nM fac: 51.04 | YFP fluorescence quenching using Facinicline, 10 uM fac (ligand Facinicline 10 uM): 79.76 | YFP fluorescence quenching using Facinicline, 30 uM fac: 81.7 | YFP fluorescence quenching using TC-6987, 1 uM tc6987: 13.01 | YFP fluorescence quenching using TC-6987, 10 uM tc6987: 14.73 | YFP fluorescence quenching using TC-6987, 500 uM tc6987: 14.29 | YFP fluorescence quenching using Varenicline, 3 nM var (first column): 2.111 | YFP fluorescence quenching using Varenicline, 3 nM var (second column): −12.265 | YFP fluorescence quenching using Varenicline, 30 nM var (first column): −4.433 | YFP fluorescence quenching using Varenicline, 30 nM var (second column): −6.153 | YFP fluorescence quenching using Varenicline, 300 nM var (first column): −0.861 | YFP fluorescence quenching using Varenicline, 300 nM var (second column): −1.308 | YFP fluorescence quenching using Varenicline, 500 nM var (first column): 0.733 | YFP fluorescence quenching using Varenicline, 500 nM var (second column): −4.633 | YFP fluorescence quenching using Varenicline, 1 uM var (first column): −4.512 | YFP fluorescence quenching using Varenicline, 1 uM var (second column): 0.02
